pKd: −log10 of the molar value.
Target: T1, ETS-4 (Caenorhabditis elegans) (UniProt A8WFJ9)
T1 sequence: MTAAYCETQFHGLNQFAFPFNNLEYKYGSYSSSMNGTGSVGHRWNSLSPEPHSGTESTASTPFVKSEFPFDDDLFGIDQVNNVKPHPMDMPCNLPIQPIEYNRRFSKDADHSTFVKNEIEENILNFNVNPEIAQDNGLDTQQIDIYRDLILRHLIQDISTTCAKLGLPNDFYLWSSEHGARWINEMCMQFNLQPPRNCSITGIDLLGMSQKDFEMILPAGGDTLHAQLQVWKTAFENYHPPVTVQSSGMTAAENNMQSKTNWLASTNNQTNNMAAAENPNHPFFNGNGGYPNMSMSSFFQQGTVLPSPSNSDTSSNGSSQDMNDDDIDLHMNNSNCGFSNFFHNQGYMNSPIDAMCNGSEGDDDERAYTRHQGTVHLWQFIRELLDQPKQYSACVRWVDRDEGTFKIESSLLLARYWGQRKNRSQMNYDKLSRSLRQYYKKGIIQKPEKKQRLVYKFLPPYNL
Test: EMSA
Settings: 25 mM Tris-Cl pH 7.9, 10% glycerol, 0.1 mM EDTA, 60 mM KCl, 6 mM MgCl2, 0.2 mg/ml BSA, 10 mM DTT, 50 ng poly[d(I-C)] in 20 ul, 1 h at 4 C; 6% native PAGE at …

Sequence | pKd
TCGACGGCCAAGCCGGATGTGAGTGCC (double strand) [ETS Site-WT (GGAT)] | 9.00
TCGACGGCCAAGCCGGAAGTGAGTGCC (double strand) [ETS Site-WT (GGAA)] | 9.00

Source: article PMC2940738
